The source of these data is publication PMC12704761, “RAD51AP1 is a versatile RAD51 modulator” (Proceedings of the National Academy of Sciences of the …, 2025).

T1: RAD51AP1-H346A (Site-C mutant), full-length (UniProt Q96B01 1-352, H346A)
T1 construct: RAD51AP1 with H346A; source: expressed from a pET28 vector, purified (HisTrap, HiTrap Heparin, HiTrap Q, gel filtration); not shown: His6, C-terminal, kept
T1 sequence (looked up): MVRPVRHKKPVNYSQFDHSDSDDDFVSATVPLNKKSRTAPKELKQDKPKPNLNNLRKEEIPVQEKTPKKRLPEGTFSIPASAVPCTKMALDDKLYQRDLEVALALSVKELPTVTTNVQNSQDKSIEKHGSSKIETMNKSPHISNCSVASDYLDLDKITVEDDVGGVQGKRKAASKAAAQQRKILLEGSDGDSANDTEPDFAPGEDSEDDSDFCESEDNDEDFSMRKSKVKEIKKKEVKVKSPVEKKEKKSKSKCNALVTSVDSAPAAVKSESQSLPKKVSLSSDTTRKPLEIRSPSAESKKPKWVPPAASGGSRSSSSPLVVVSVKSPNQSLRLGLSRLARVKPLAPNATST

T2: RAD51AP1 Site-NC double mutant, full-length (UniProt Q96B01 1-352, K300 to alanine | K303 to alanine | W304 to alanine | P306 to alanine | P307 to …)
T2 construct: RAD51AP1 in which both Site-N (K300, K303, W304, P306, P307 to alanine) and Site-C (H346A) are mutated; also called Site-N and Site-C double mutant; source: expressed from a pET28 vector, purified (HisTrap, HiTrap Heparin, HiTrap Q, gel filtration); not shown: His6, C-terminal, kept
T2 sequence (looked up): T1 sequence (looked up) with K300A, K303A, W304A, P306A, P307A

T3: RAD51AP1 (RAD51 associated protein 1), full-length wild type (UniProt Q96B01 1-352)
T3 construct: RAD51AP1, synthetic gene from Invitrogen; printed residue numbers (H346); One of PDB 9QN8, 9QNA, 9QNB, 9QNC holds its modelled residues; Detailed protocols are in SI Appendix, Supplementary Methods; also called WT; source: expressed from a pET28 vector, purified (HisTrap, HiTrap Heparin, HiTrap Q, gel filtration); not shown: His6, C-terminal, kept
T3 sequence (looked up): T1 sequence (looked up) with A346H

T4: RAD51AP1 Site-N mutant, full-length (UniProt Q96B01 1-352, K300 to alanine | K303 to alanine | W304 to alanine | P306 to alanine | P307 to …)
T4 construct: RAD51AP1 with five conserved Site-N residues (K300, K303, W304, P306, P307) mutated to alanine; source: expressed from a pET28 vector, purified (HisTrap, HiTrap Heparin, HiTrap Q, gel filtration); not shown: His6, C-terminal, kept
T4 sequence (looked up): T1 sequence (looked up) with K300A, K303A, W304A, P306A, P307A, A346H

T5: RAD51 recombinase, Q06609
T5 chain: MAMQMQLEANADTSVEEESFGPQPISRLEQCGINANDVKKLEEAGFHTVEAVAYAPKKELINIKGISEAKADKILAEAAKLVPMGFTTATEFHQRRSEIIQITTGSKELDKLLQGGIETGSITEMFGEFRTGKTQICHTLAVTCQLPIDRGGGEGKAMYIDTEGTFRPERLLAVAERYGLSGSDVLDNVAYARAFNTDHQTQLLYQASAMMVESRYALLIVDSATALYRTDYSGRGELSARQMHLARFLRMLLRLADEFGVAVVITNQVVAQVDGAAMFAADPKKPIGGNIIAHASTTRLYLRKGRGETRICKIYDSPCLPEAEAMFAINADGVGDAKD

B1: RAD51AP1 C29 (domain or fragment, UniProt Q96B01 324-352, looked up)
chain: SVKSPNQSLRLGLSRLARVKPLHPNATST
notes: RAD51AP1, C-terminal 29 residues; lacks Site-N, contains Site-M and Site-C; One of PDB 9QN8, 9QNA, 9QNB, 9QNC holds it; also called RAD51AP1 C29 fragment; RAD51AP1 C-terminal domain
B2: RAD51 recombinase (natural protein)
chain: T5 chain
notes: RAD51 recombinase, wild type; expressed from the pCH1-derived plasmid pJ9; In the cryo-EM samples it stood as a filament on ssDNA with Ca2+-ATP, Mg2+-ATP or Mg2+-ADP; the introduction speaks of the human genome and the discussion sets 'mouse proteins' of earlier work apart; source: E. coli BL21 (DE3), coexpressed with His-MBP-BRC4 and GroEL, purified (HisTrap, HiTrap Heparin, HiTrap Q)
B3: RAD51AP1 C59, wild type K300A; K303A; W304A; P306A; P307A (protein)
chain: SPSAESAKPAAVAAAASGGSRSSSSPLVVVSVKSPNQSLRLGLSRLARVKPLHPNATST

In the assay “RAD51 recombinase” the target is B2. Nature of the assay: cryo-EM structure; RAD51-ssDNA filaments formed with Mg2+-ATP (7 µM RAD51) mixed with C29 (28 µM); single particle analysis, 3.0 Å. The following applies: both partners purified.
Assay [1] has as its target T1, RAD51AP1-H346A (Site-C mutant), …. Nature of the assay: BLI; RAD51AP1 with C-terminal hexahistidine tag on nickel-NTA biosensors, RAD51 2.5 µM to 39 nM, Octet Red, 25 °C, Kd from response against concentration, 1:1 model. As to conditions: both partners purified. In general terms: In BLI a coated tip is dipped into the sample, and binding shifts an interference pattern.

In assay [2] the target is T2, RAD51AP1 Site-NC double mutant, …. The description is as above. The following applies: both partners purified.
Assay [3] addresses T3, RAD51AP1 (RAD51 associated protein 1), …. The description is as above. As to conditions: both partners purified.
Assay [4] deals with T4, RAD51AP1 Site-N mutant, full-length. As to the kind of experiment: pull-down; His-tagged full-length RAD51AP1 (1 µM) immobilised on magnetic cobalt resin, RAD51 (1 µM) in pull-down buffer with ATP and Mg2+, 37 °C, 5 min; SDS-PAGE of supernatant and eluate. The following applies: both partners purified.
Assay [5] addresses T5, RAD51 recombinase, Q06609. As to the kind of experiment: pull-down. As to conditions: chain shown with the change; n = 3; parent: est. 54; read off a plot.

Positions count from the first letter of the chain named. In names and notes the source's numbering stands.

As to B1, the binding result in the assay with RAD51 recombinase is given as “binds”.
For B2, the “fold decrease in binding affinity against wild-type RAD51AP1” value in assay [1] was approximately 2.5 fold. Moreover, in assay [2], the “fold reduction in affinity against wild-type RAD51AP1” value was approximately 4 fold. In assay [3], this molecule showed a Kd of approximately 600 nM. Further, in assay [4], the binding result is “binds”.
With B3, the response in assay [5] is 60%.

As usually defined, the Kd is a measure of binding affinity in units of concentration. A low value points to higher affinity.
